# Source: article PMC11272045
# Target: recombinant his-tag subtilisin-like protease-1 (SspA-1) (Streptococcus suis serotype 2 strain 05ZYH33)
# Experiment: MST
substance,measurement,value
recombinant glutathione S-transferase (GST)-tagged human TLR2 (from UniProt O60603 21-784) (receptor),Kd,24.3 nM
